# Assay results: the RNAGym collection of RNA variant scans (doi:10.7554/elife.80360)
# B1: Hairpin Ribozyme (parent)
# chain: GUCCUCUUUCACGUGCGCGUGAAAGAGAGAAGUGAACCAGAGAAACACACGUUGUGGUAUAUUACCUGGUA
# Variants of: B1
# Assay: self-cleavage, relative activity (ratio to wild type); higher = more cleavage; co-transcriptional
row,Variant,self-cleavage
1,GUACGCUUUCACGUGCGCGUGAAAGAGAGAAGUGAACCAGAGAAACACACGUUGUGGUAUAUUACCUGGUA [C3A U5G],0.117
2,GUACCCUUUCACGUGCGCGUGAAAGAGAGAAGUGAACCAGAGAAACACACGUUGUGGUAUAUUACCUGGUA [C3A U5C],0.247
3,GUACUCUUUCACGUGCGCGUGAAAGAGAGAAGUGAACCAGAGAAACACACGUUGUGGUAUAUUACUUGGUA [C3A C66U],0.435
4,GUACUCUUUCACGUGCGCGUGAAAGAGAGAAGUGAACCAGAGAAACACACGUUGUGGUAUAUUACAUGGUA [C3A C66A],0.188
5,GUACUCUUUCACGUGCGCGUGAAAGAGAGAAGUGAACCAGAGAAACACACGUUGUGGUAUAUUACGUGGUA [C3A C66G],0.234
6,GUACUCUUUCACGUGCGCGUGAAAGAGAGAAGUGAACCAGAGAAACACACGCUGUGGUAUAUUACCUGGUA [C3A U52C],0.619
7,GUACUCUUUCACGUGCGCGUGAAAGAGAGAAGUGAACCAGAGAAACACACGUUGUGGUAUCUUACCUGGUA [C3A A61C],0.16
8,GUACUCUUUCACGUGCGCGUGAAAGAGAGAAGUGAACGAGAGAAACACACGUUGUGGUAUAUUACCUGGUA [C3A C38G],0.156
9,GGCCUCUUUCACGUGCGCGUGAAAGAGAGAAGAGAACCAGAGAAACACACGUUGUGGUAUAUUACCUGGUA [U2G U33A],0.115
10,GUACUCUUUCACGUGCGCGUGAAAGAGAGAAGUGCACCAGAGAAACACACGUUGUGGUAUAUUACCUGGUA [C3A A35C],1.15
11,GUACUCUUUCACGUGCGCGUGAAAGAGAGAAGCGAACCAGAGAAACACACGUUGUGGUAUAUUACCUGGUA [C3A U33C],0.191
12,GUACUCUUUCACGUGCGCGUGAAAGAGAGAAGGGAACCAGAGAAACACACGUUGUGGUAUAUUACCUGGUA [C3A U33G],0.146
13,GUACUCUUUCACGUGCGCGUGAAAGAGAGAAGUGAACCAGAGAAACACACAUUGUGGUAUAUUACCUGGUA [C3A G51A],0.819
14,GGCCUCUUUCACGUGCGCGUGAAAGAGAGAAGUGAACCAGAGAAACACACGUUGAGGUAUAUUACCUGGUA [U2G U55A],0.195
15,GGCCUCUUUCACGUGCGCGUGAAAGAGAGAAGUGAACCAGAGAAACACACGUUGGGGUAUAUUACCUGGUA [U2G U55G],0.367
16,GUACUCUUUCACGUGCGCGUGAAAGAGAGAAGUGAACCACAGAAACACACGUUGUGGUAUAUUACCUGGUA [C3A G40C],0.0884
17,GUACUCUUUCACGUGGGCGUGAAAGAGAGAAGUGAACCAGAGAAACACACGUUGUGGUAUAUUACCUGGUA [C3A C16G],0.587
18,GUACUCUUUCACGUGUGCGUGAAAGAGAGAAGUGAACCAGAGAAACACACGUUGUGGUAUAUUACCUGGUA [C3A C16U],0.769
19,GUACUCUUUCACGUGCGCGUGAAAGAGAGAAGUGAACCAGAGAAACACACGUUGUCGUAUAUUACCUGGUA [C3A G56C],0.147
20,GUACUCUUUCACGUGCGCGUGAAAGAGAGAAGUGAACCAGAGAAACACACGUUGUGUUAUAUUACCUGGUA [C3A G57U],0.153
21,GUACUCUUUCACGUGCGCGUGAAAGAGAGAAGUGAACCAGAGAAACCCACGUUGUGGUAUAUUACCUGGUA [C3A A47C],0.239
22,GUACUAUUUCACGUGCGCGUGAAAGAGAGAAGUGAACCAGAGAAACACACGUUGUGGUAUAUUACCUGGUA [C3A C6A],0.484
23,GUACUCUUUCACGUGCGCUUGAAAGAGAGAAGUGAACCAGAGAAACACACGUUGUGGUAUAUUACCUGGUA [C3A G19U],0.582
24,GUACUCUUUCACGUGCGCCUGAAAGAGAGAAGUGAACCAGAGAAACACACGUUGUGGUAUAUUACCUGGUA [C3A G19C],0.535
25,GUACUCUUUCACGUGCGCGUGAAAGAGAGAAGUGAACCAGAGAAACACACGUUGUGGUAUAUUACCUGAUA [C3A G69A],0.275
26,GUACUCUUUCACGUGCGCGUGAAAGAGAGAAGUGAACCAGAGAAACACACGUUGUGGUAUAUUACCUGUUA [C3A G69U],0.212

row,Variant,self-cleavage
1,GUACUCUUUCACGUGCGCGUGAAAGAGAGAAGUGAACCAGAGAAACACACGUUGUGGAAUAUUACCUGGUA [C3A U58A],0.637
2,GUACUCUUUCACGUGCGCGUGAAAGAGAGAAGUGAACCAGAGAAACACACGUUGUGGCAUAUUACCUGGUA [C3A U58C],0.811
3,GUACUCUUUCACGUGCGCGUGAAAGAGAGAAGUGAACCAGAGAAACACACGUUGUGGGAUAUUACCUGGUA [C3A U58G],0.274
4,GUACUCUUUCACGUGCGCGUGAAAAAGAGAAGUGAACCAGAGAAACACACGUUGUGGUAUAUUACCUGGUA [C3A G25A],0.457
5,GUACUCUUUCACGUGCGCGUGAAAGAGAGAAGUGAACCAGAGAAACAAACGUUGUGGUAUAUUACCUGGUA [C3A C48A],0.152
6,GGCCUCUUUCACGUGCGCGUGAAAGAGAGAAGUGAACCAGAGAAACACACGUUGUGGUAGAUUACCUGGUA [U2G U60G],0.278
7,GUACUCUUUCACGUGCGCGUGAAAGACAGAAGUGAACCAGAGAAACACACGUUGUGGUAUAUUACCUGGUA [C3A G27C],0.21
8,GUACUCUUUCACGUGCGCGUGAAAGAGAGAAGUAAACCAGAGAAACACACGUUGUGGUAUAUUACCUGGUA [C3A G34A],1.07
9,GUACUCUUUCACGUGCGCGUGAAAGAGAGAAGUGAACCAGAGAAACACGCGUUGUGGUAUAUUACCUGGUA [C3A A49G],0.426
10,GUACUCUUUCACGUGCGCGUGAAAGAGAGAAGUGAACCAGAGAAACACAAGUUGUGGUAUAUUACCUGGUA [C3A C50A],0.145
11,GUACUCUUUCACGUGCGCGUGAAAGAGAGAAGUGAACCAGAGAAACACAUGUUGUGGUAUAUUACCUGGUA [C3A C50U],0.236
12,GGCCUCUUUCACGUGCGCGUGAAAGAGAGAAGUGAACCAGAGAAACACACGUCGUGGUAUAUUACCUGGUA [U2G U53C],0.575
13,GUACUCUUUCACGUGCGCGUGAAAGAGAGAAGUGAACCAGAGAAACACACGUUGUGGUAUAUUACCUCGUA [C3A G68C],0.211
14,GUACUCUUUCACGUGCGCGUGAAAGAGAGAAGUGAACCAGAGAAACACACGUUGUGGUAUAUUACCUAGUA [C3A G68A],0.172
15,GUACUCUUUCACGUGCGCGUAAAAGAGAGAAGUGAACCAGAGAAACACACGUUGUGGUAUAUUACCUGGUA [C3A G21A],0.567
16,GUACUCUUUCACGUGCGCGUUAAAGAGAGAAGUGAACCAGAGAAACACACGUUGUGGUAUAUUACCUGGUA [C3A G21U],0.655
17,GUACUCUUUCACGUGCGCGUGAAAGAGAGAAGUGAAGCAGAGAAACACACGUUGUGGUAUAUUACCUGGUA [C3A C37G],0.32
18,GUACUCUUUCACGUCCGCGUGAAAGAGAGAAGUGAACCAGAGAAACACACGUUGUGGUAUAUUACCUGGUA [C3A G15C],0.65
19,GGCCUCUUUCACGUGCGCGUGAAAGAGAGAAGUGAACCAGAGAAACACACGUUGUGGUAUAUUACCAGGUA [U2G U67A],0.139
20,GGCCUCCUUCACGUGCGCGUGAAAGAGAGAAGUGAACCAGAGAAACACACGUUGUGGUAUAUUACCUGGUA [U2G U7C],0.384
21,GGCCUCAUUCACGUGCGCGUGAAAGAGAGAAGUGAACCAGAGAAACACACGUUGUGGUAUAUUACCUGGUA [U2G U7A],0.255
22,GGCCUCGUUCACGUGCGCGUGAAAGAGAGAAGUGAACCAGAGAAACACACGUUGUGGUAUAUUACCUGGUA [U2G U7G],0.35
23,GUACUCUUUCACGUGCGCGUGAAGGAGAGAAGUGAACCAGAGAAACACACGUUGUGGUAUAUUACCUGGUA [C3A A24G],0.704
24,GUACUCUGUCACGUGCGCGUGAAAGAGAGAAGUGAACCAGAGAAACACACGUUGUGGUAUAUUACCUGGUA [C3A U8G],0.541
25,GUACUCUUUCACGUGCGCGUGAAAGAGAGAAGUGAACCAGAGAAACACACGUUGUGGUAUAUUAACUGGUA [C3A C65A],0.662
26,GUACUCUUUAACGUGCGCGUGAAAGAGAGAAGUGAACCAGAGAAACACACGUUGUGGUAUAUUACCUGGUA [C3A C10A],0.461

row,Variant,self-cleavage
1,GUACUCUUUCACGUGCGCGUGAAAGAGAGAAGUGAACCAGAGACACACACGUUGUGGUAUAUUACCUGGUA [C3A A44C],0.123
2,GGCCUCUUUCACGUGCGCGUGAAAGAGAGAAGUGAACCAGAGAAACACACGUUGUGGUAUAUUACCUGGCA [U2G U70C],0.12
3,GGCCUCUUUCACGUGCGCGUGAAAGAGAGAAGUGAACCAGAGAAACACACGUUGUGGUAUAUUACCUGGGA [U2G U70G],0.244
4,GUACUCUUUCACGUGCGCGUGAAAGAGAGAACUGAACCAGAGAAACACACGUUGUGGUAUAUUACCUGGUA [C3A G32C],0.114
5,GUACUCUUUCACGUGCGCGUGAAAGAGAGAAAUGAACCAGAGAAACACACGUUGUGGUAUAUUACCUGGUA [C3A G32A],0.176
6,GUACUCUUUCACGUGCGCGUGAAAGAGAGAAUUGAACCAGAGAAACACACGUUGUGGUAUAUUACCUGGUA [C3A G32U],0.0959
7,GGCCGCUUUCACGUGCGCGUGAAAGAGAGAAGUGAACCAGAGAAACACACGUUGUGGUAUAUUACCUGGUA [U2G U5G],0.0759
8,GGCCUCUAUCACGUGCGCGUGAAAGAGAGAAGUGAACCAGAGAAACACACGUUGUGGUAUAUUACCUGGUA [U2G U8A],0.295
9,GUACUCUUUCACGUGCGCGUGAAAGAGAGAAGUGAACCAGAGGAACACACGUUGUGGUAUAUUACCUGGUA [C3A A43G],0.143
10,GUACUCUUUCACGUGCGCGUGAUAGAGAGAAGUGAACCAGAGAAACACACGUUGUGGUAUAUUACCUGGUA [C3A A23U],0.619
11,GUACUCUUUCACGUGCGCGUGACAGAGAGAAGUGAACCAGAGAAACACACGUUGUGGUAUAUUACCUGGUA [C3A A23C],0.484
12,GGCCUCUUUCACGUGCGCGUGAAAGAGAGAAGUGAACCAGAGAAACACACGUUGUGGUAUAUAACCUGGUA [U2G U63A],0.149
13,GUACUCAUUCACGUGCGCGUGAAAGAGAGAAGUGAACCAGAGAAACACACGUUGUGGUAUAUUACCUGGUA [C3A U7A],0.822
14,GUACUCGUUCACGUGCGCGUGAAAGAGAGAAGUGAACCAGAGAAACACACGUUGUGGUAUAUUACCUGGUA [C3A U7G],0.703
15,GUACUCUUUCACAUGCGCGUGAAAGAGAGAAGUGAACCAGAGAAACACACGUUGUGGUAUAUUACCUGGUA [C3A G13A],0.628
16,GGCCUCUUCCACGUGCGCGUGAAAGAGAGAAGUGAACCAGAGAAACACACGUUGUGGUAUAUUACCUGGUA [U2G U9C],0.231
17,GUACUCUUUCACGUGCGCGUGAAAGAGAGAAGUGAACCAGAGAAACACACGUUUUGGUAUAUUACCUGGUA [C3A G54U],0.403
18,GGCCUCUUUCACGUGCGCGUGAAAGAGAGAAGUGAACCAGAGAAACACACGUUGUGGCAUAUUACCUGGUA [U2G U58C],0.384
19,GUACUCUUUCGCGUGCGCGUGAAAGAGAGAAGUGAACCAGAGAAACACACGUUGUGGUAUAUUACCUGGUA [C3A A11G],0.686
20,GUACUCUUUCCCGUGCGCGUGAAAGAGAGAAGUGAACCAGAGAAACACACGUUGUGGUAUAUUACCUGGUA [C3A A11C],0.618
21,GUACUCUUUCACGUGCGCGUGAAAGAGAGAAGUGAACCAGAGAAAGACACGUUGUGGUAUAUUACCUGGUA [C3A C46G],0.105
22,GGCCUCUUUCACGGGCGCGUGAAAGAGAGAAGUGAACCAGAGAAACACACGUUGUGGUAUAUUACCUGGUA [U2G U14G],0.322
23,GUACUCUUUCAAGUGCGCGUGAAAGAGAGAAGUGAACCAGAGAAACACACGUUGUGGUAUAUUACCUGGUA [C3A C12A],0.603
24,GUACUCUUUCAGGUGCGCGUGAAAGAGAGAAGUGAACCAGAGAAACACACGUUGUGGUAUAUUACCUGGUA [C3A C12G],0.636
